The record followed here is US20240400657A1 (MorphoSys, published 2024).

Test [1] deals with T1, engineered version of human C5aR expressed on CHO cells of the PathHunter β-arrestin assay (DiscoveRx) (human, UniProt P21730 1-350).
T1 sequence (looked up): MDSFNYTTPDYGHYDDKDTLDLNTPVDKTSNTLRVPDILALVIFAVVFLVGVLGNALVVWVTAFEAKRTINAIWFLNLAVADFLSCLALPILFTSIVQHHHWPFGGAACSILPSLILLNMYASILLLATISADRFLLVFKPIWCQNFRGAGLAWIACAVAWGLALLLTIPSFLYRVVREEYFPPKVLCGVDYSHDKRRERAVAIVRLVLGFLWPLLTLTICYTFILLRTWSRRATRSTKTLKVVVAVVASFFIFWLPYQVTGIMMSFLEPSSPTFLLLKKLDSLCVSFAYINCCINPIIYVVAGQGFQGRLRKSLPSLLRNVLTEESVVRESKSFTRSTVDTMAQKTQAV
Kind of test: cell-based or functional assay.

Test [2] deals with T2, C5aR expressed on purified cynomolgus neutrophils (cynomolgus monkey (Macaca fascicularis)).
T2 construct: Endogenous receptor on neutrophils from whole blood of three animals; also called cynomolgus C5aR expressed endogenously
T2 chain: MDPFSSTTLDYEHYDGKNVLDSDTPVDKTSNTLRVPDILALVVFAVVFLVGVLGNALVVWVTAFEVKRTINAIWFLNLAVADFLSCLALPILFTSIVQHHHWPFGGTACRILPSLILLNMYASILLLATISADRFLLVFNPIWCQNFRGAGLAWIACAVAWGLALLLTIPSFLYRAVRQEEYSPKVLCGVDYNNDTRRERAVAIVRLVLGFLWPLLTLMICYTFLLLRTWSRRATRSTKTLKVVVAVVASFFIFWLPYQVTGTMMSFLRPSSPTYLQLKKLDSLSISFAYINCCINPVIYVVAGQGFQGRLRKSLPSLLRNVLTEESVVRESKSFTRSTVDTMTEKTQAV
Put plainly: FACS on purified cynomolgus neutrophils, IgG titration.
Protocol: Neutrophils were purified from EDTA-whole blood samples using a MACSexpress® Neutrophil Isolation Cocktail from Miltenyi Biotec. Briefly, using this kit, cells are isolated using magnetic labeling and negative magnetic separation. […] Measurements were done at the FACS Array device. FACS data were evaluated using FlowJo™, entered into GraphPad® Prism (v4.0) and fitted to the sigmoidal dose-response curve using non-linear regression to calculate the EC50.

The target in test [3] is T3, full length rat C5aR stably expressed on CHO Flp-In cells (rat (Rattus norvegicus), UniProt P97520 1-352).
T3 sequence: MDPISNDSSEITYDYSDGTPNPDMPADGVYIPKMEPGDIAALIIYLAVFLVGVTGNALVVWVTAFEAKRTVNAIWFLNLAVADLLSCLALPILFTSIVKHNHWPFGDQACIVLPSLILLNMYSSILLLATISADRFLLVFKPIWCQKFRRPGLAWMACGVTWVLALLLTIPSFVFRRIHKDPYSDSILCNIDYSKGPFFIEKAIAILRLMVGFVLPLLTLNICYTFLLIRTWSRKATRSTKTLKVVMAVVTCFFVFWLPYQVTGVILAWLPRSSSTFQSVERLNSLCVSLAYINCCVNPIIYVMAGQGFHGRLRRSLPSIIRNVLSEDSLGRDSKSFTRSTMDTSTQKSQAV
Put plainly: FACS, CHO Flp-In cells expressing rat C5aR, single IgG concentration. On the technique in general: Flow cytometry measures light scatter and fluorescence of single cells or particles in a stream.

For test [4], the target named is T4, Mouse FcRn p51 [1-297]/AviHis/p14 biotinylated (mouse, UniProt Q61559 22-298; P01887 21-119, biotinylated in vitro with BirA (Avi tag)).
T4 construct: Heterodimer; UniProt Q61559 (p51); also called Murine FcRn
T4 chain 1: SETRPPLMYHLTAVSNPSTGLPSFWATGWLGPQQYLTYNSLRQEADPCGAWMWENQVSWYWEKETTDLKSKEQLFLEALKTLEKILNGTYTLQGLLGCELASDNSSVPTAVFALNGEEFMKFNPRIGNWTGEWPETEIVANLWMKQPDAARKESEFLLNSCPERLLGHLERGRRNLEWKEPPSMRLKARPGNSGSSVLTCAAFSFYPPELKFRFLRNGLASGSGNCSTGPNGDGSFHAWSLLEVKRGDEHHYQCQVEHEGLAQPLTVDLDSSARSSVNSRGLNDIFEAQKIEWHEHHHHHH
T4 chain 2: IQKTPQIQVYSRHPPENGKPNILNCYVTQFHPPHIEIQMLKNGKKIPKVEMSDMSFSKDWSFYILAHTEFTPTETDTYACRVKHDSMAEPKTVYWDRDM
Kind of test: BLI (Octet HTX), biotinylated FcRn on SA sensors, IgG titrated, steady state fit, apparent KD, pH 6.0. (BLI is a label-free optical method that tracks binding on a fibre tip over time.)
Description: (§1) 0.5 nm of biotinylated human, cynomolgus, mouse and rat FcRn were captured on streptavidin (SA) sensors (FortéBIO, Pall Life Sciences). […] All sensorgrams were fitted using Data Analysis Software 10.0 (FortéBIO, Pall Life Sciences) to determine the apparent affinity and the data was fitted with a steady state model.

The target of test [5] is T5, Rat FcRn p51 [1-298]/AviHis/p14 biotinylated (rat, UniProt P13599 23-299; P07151 21-119, biotinylated in vitro with BirA (Avi tag)).
T5 construct: Heterodimer; UniProt P13599 (p51)
T5 sequence 1: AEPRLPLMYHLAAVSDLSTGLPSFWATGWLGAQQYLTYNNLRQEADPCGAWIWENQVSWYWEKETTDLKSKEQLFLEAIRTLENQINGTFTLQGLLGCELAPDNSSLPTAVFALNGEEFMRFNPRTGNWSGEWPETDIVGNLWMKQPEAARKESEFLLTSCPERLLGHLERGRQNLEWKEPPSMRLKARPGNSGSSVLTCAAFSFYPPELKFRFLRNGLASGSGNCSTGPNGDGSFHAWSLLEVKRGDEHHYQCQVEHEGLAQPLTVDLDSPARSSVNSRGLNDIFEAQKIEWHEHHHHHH
T5 sequence 2: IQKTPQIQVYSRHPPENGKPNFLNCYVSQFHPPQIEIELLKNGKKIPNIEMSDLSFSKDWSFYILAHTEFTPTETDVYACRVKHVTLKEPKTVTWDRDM
The description is as above.
Description: as §1

The target in test [6] is T4, Mouse FcRn p51 [1-297]/AviHis/p14 …. Kind of test: BLI (Octet HTX), biotinylated FcRn on SA sensors, IgG titrated, steady state fit, apparent KD, pH 7.2.
Description: as §1
The target in test [7] is T5, Rat FcRn p51 [1-298]/AviHis/p14 …. Described as above.
Description: as §1
For test [8], the target named is T6, Human FcRn p51 [1-297]/AviHis/p14 biotinylated (human, UniProt P55899 24-298; P16213 21-119).
T6 construct: Heterodimer of two polypeptides; UniProt P55899 (p51), P61769 (p14) printed
T6 sequence (P55899 other isoform, or with tags, fused parts or gaps limits assumed, chain 1 of 2): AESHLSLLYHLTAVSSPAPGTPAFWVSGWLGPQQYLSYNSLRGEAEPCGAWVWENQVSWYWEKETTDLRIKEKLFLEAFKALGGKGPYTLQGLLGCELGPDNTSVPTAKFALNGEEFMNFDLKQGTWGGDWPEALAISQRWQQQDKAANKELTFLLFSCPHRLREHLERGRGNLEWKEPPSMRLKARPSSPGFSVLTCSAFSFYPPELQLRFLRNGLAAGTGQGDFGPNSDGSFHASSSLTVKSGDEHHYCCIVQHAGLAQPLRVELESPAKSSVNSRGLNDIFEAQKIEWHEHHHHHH
T6 sequence (P16213 21-119 limits assumed, chain 2 of 2): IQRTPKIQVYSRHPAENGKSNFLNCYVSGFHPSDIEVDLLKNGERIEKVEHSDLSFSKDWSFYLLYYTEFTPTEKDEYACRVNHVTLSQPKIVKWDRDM
Put plainly: BLI (Octet HTX), biotinylated FcRn on SA sensors, IgG titrated, steady state fit, apparent KD, pH 6.0; * deviation from fit model; pH 6.0.
Description: as §1

Where a chain is given by its changes, count along the chain named.

B1: MAB #2 (antibody, human IgG1, lambda)
heavy: EVQLVESGGGLVKPGGSLRLSCAASGFTFSSYAMHWVRQAPGKGLEWVGRIKSVAQGGTTDYAAHVKGRFTISRDDSKNTLYLQMNSLKTEDTAVYYCARVSHSTFDVWGQGTLVTVSSASTKGPSVFPLAPSSKSTSGGTAALGCLVKDYFPEPVTVSWNSGALTSGVHTFPAVLQSSGLYSLSSVVTVPSSSLGTQTYICNVNHKPSNTKVDKRVEPKSCDKTHTCPPCPAPEAEGAPSVFLFPPKPKDTLMISRTPEVTCVVVDVSHEDPEVKFNWYVDGVEVHNAKTKPREEQYNSTYRVVSVLTVLHQDWLNGKEYKCKVSNKALPSSIEKTISKAKGQPREPQVYTLPPSREEMTKNQVSLTCLVKGFYPSDIAVEWESNGQPENNYKTTPPVLDSDGSFFLYSKLTVDKSRWQQGNVFSCSVMHEALHNHYTQKSLSLSPGK
light: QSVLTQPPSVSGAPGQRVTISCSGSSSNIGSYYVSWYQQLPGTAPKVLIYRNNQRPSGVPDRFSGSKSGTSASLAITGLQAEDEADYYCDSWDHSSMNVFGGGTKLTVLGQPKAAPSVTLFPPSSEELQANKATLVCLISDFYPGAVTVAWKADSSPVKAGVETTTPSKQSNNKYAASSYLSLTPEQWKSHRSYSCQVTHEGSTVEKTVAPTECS
notes: lambda 1 light chain
A word on the EC50: it is the concentration needed to bring the measured effect to its halfway point. B1: the “[%] inhibition at 1.2 nM C5a and 50 nM IgG, β-arrestin recruitment” value in test [1] is 90.5%. In test [1], the “[%] inhibition at 11 nM C5a and 50 nM IgG, β-arrestin recruitment” value is 75.2%. The “[%] inhibition at 100 nM C5a and 50 nM IgG, β-arrestin recruitment” value in test [1] amounted to 31.2%. The molecule also yielded an EC50 in test [2] of 3.8 nM. Also, in test [3], the binding result is “no binding (tested: 300 nM)”. Also, the Kd in test [4] amounted to 7.3 nM; in test [5] it was 10 nM; in test [6], 130 nM; in test [7], 300 nM; in test [8], 36 nM.

B2: MAB #1 (antibody, human IgG1, lambda)
heavy: B1 heavy with V54K, H103F
light: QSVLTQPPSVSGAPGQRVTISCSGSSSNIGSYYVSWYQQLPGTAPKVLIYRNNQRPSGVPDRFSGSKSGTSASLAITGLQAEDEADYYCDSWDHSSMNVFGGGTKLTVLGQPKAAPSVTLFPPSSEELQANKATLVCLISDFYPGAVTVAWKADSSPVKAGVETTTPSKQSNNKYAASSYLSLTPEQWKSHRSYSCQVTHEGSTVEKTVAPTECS
notes: lambda 1 light chain, VH3-15 framework
On to B2, for which the “[%] inhibition at 1.2 nM C5a and 50 nM IgG, β-arrestin recruitment” value in test [1] amounted to 91.9%. For the same molecule, the “[%] inhibition at 11 nM C5a and 50 nM IgG, β-arrestin recruitment” value in test [1] is 79.9%. Also, the “[%] inhibition at 100 nM C5a and 50 nM IgG, β-arrestin recruitment” value in test [1] was 41.8%. In addition, in test [2], the EC50 worked out at 4.5 nM. Moreover, the binding result in test [3] is “no binding (tested: 300 nM)”. Also, the Kd was 4.3 nM in test [4]; 5.7 nM in test [5]; 39 nM in test [6]; 110 nM in test [7]; 9 nM in test [8].
